Measured values from the supplement of paper PMC9233669.
Fewer inactive variants are shown than the library holds.

What was measured:
biotinyl-Phe-oxazolone = experiment: self-aminoacylation, catalytic enhancement (BFO) (fold over background); higher = more active; k-Seq, kA / k0A0; sequences stand for … in GGGAAUGGAUCCACAUCUACGAAUUC…UUCACUGCAGACUUGACGAAGCUG
In short: (§1)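 Catalytic enhancement equals the median kA over the uncatalyzed rate, the latter read from the low-activity peak of a bimodal Gaussian fit. Values of kA came from fitting each sequence's fraction reacted to a pseudo-first-order model, with 1000 bootstraps. Reacted RNA was captured with streptavidin and quantified by triplicate qPCR and Illumina sequencing after 90 minutes at room temperature with 2–1250 μM biotinyl-aminoacyl-oxazolone and 0.43 μM mutagenized RNA pools bearing a 21-nt variable region.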

biotinyl-Met-oxazolone = experiment: self-aminoacylation, catalytic enhancement (BMO) (fold over background); higher = more active; k-Seq, kA / k0A0; sequences stand for … in GGGAAUGGAUCCACAUCUACGAAUUC…UUCACUGCAGACUUGACGAAGCUG
In short: as §1

biotinyl-Trp-oxazolone = experiment: self-aminoacylation, catalytic enhancement (BWO) (fold over background); higher = more active; k-Seq, kA / k0A0; sequences stand for … in GGGAAUGGAUCCACAUCUACGAAUUC…UUCACUGCAGACUUGACGAAGCUG
In short: as §1

biotinyl-Leu-oxazolone = experiment: self-aminoacylation, catalytic enhancement (BLO) (fold over background); higher = more active; k-Seq, kA / k0A0; sequences stand for … in GGGAAUGGAUCCACAUCUACGAAUUC…UUCACUGCAGACUUGACGAAGCUG
In short: as §1

biotinyl-Val-oxazolone = experiment: self-aminoacylation, catalytic enhancement (BVO) (fold over background); higher = more active; k-Seq, kA / k0A0; sequences stand for … in GGGAAUGGAUCCACAUCUACGAAUUC…UUCACUGCAGACUUGACGAAGCUG
In short: as §1

Row | Sequence | self-aminoacylation (biotinyl-Phe-oxazolone) | self-aminoacylation (biotinyl-Met-oxazolone) | self-aminoacylation (biotinyl-Trp-oxazolone) | self-aminoacylation (biotinyl-Leu-oxazolone) | self-aminoacylation (biotinyl-Val-oxazolone)
1 | AACUCUGCUAAUAGUCGCAAG [Fam3.1 aminoacylation ribozyme variant] | 16.4 | 2.46 | 5.56 | – | –
2 | AAGAAUGCUAAUAGUCGCAAG [Fam3.1 aminoacylation ribozyme variant] | 12.5 | 2.19 | 3.69 | – | –
3 | AAGACUGCUAAUAGUCGCAAG [Fam3.1 aminoacylation ribozyme variant] | 18.5 | 2.04 | 4.56 | – | –
4 | AAGAUUGUUAAUAGUCGCAAG [Fam3.1 aminoacylation ribozyme variant] | 2.81 | 2.14 | 2.65 | – | –
5 | AAGCUUGCUAAUAGCCGCAAG [Fam3.1 aminoacylation ribozyme variant] | 3.2 | 2.25 | 3.08 | 2.58 | –
6 | AAGCUUGCUAAUAGUCGCAGG [Fam3.1 aminoacylation ribozyme variant] | 7.7 | – | 2.15 | 2.14 | –
7 | AAGCUUGGUAAUAGUCGCAAG [Fam3.1 aminoacylation ribozyme variant] | 2.69 | 2.46 | 2.68 | 2.52 | –
8 | AAGUGUGCUAAUAGUCGCCAG [Fam3.1 aminoacylation ribozyme variant] | 2.38 | – | 2.33 | 2.2 | –
9 | AAGUUUGCCAAUAGUCGCACG [Fam3.1 aminoacylation ribozyme variant] | – | 2.3 | – | 2.05 | –
10 | AAGUUUGCUAAUAGUCGCGUG [Fam3.1 aminoacylation ribozyme variant] | 8.13 | 2.33 | 2.15 | 2.15 | –
11 | AAUACCCUGGUCAUCGAGUGG [Fam2.1 aminoacylation ribozyme variant] | 7.18 | 2.49 | 3.39 | 2.81 | –
12 | AAUACCCUGGUCCUCGAGUGA [Fam2.1 aminoacylation ribozyme variant] | 9.54 | 3.08 | 3.22 | 3.33 | –
13 | AUAACCCUGGUCAUCGUGUGA [Fam2.1 aminoacylation ribozyme variant] | 15.2 | 3.15 | 3.32 | 3.53 | –
14 | AUACACCUAGGUCAUCGAGUG [Fam2.2 aminoacylation ribozyme variant] | 2.81 | 2.4 | 2.4 | 2.87 | –
15 | AUUAACCUGGCCAUCGAGUGA [Fam2.1 aminoacylation ribozyme variant] | – | 2.01 | 2.78 | 2.11 | –
16 | AUUACACUGGUCAUCAAGUGA [Fam2.1 aminoacylation ribozyme variant] | 3.52 | 2.7 | 3.18 | 2.31 | –
17 | AUUACCCAGGUCAUCGUGUGA [Fam2.1 aminoacylation ribozyme variant] | 21.4 | 3.58 | 4.27 | 3.86 | –
18 | AUUACCCUCGUCAUGGAGUGA [Fam2.1 aminoacylation ribozyme variant] | 8.82 | 2.81 | 2.5 | 3.02 | –
19 | AUUACCCUCGUCGUCGAGUGA [Fam2.1 aminoacylation ribozyme variant] | 3.84 | – | 2.11 | 2.04 | –

Row | Sequence | self-aminoacylation (biotinyl-Phe-oxazolone) | self-aminoacylation (biotinyl-Met-oxazolone) | self-aminoacylation (biotinyl-Trp-oxazolone) | self-aminoacylation (biotinyl-Leu-oxazolone) | self-aminoacylation (biotinyl-Val-oxazolone)
20 | AUUACCCUGGGCUUCGAGUGA [Fam2.1 aminoacylation ribozyme variant] | – | 2.01 | 2.03 | – | –
21 | AUUACCCUGGUCAUCCAGAGA [Fam2.1 aminoacylation ribozyme variant] | 2.38 | – | – | 2.03 | –
22 | AUUACCCUGGUCAUCGAGGGG [Fam2.1 aminoacylation ribozyme variant] | 2.86 | 2.75 | 2.23 | 2.42 | –
23 | AUUACCCUGGUCCUCGAGUGG [Fam2.1 aminoacylation ribozyme variant] | 2.88 | 2.1 | – | – | –
24 | AUUACCCUGGUCGUCCAGUGA [Fam2.1 aminoacylation ribozyme variant] | 11.1 | 2.68 | 3.21 | 2.88 | –
25 | AUUACCCUGGUCUGCGAGUGA [Fam2.1 aminoacylation ribozyme variant] | 9.18 | 2.15 | 2.62 | 2.72 | –
26 | AUUACUCUGGUCAUCAAGUGA [Fam2.1 aminoacylation ribozyme variant] | 4.38 | 2.47 | 3.07 | 2.29 | –
27 | AUUAGCCUGGUCAUCGAGUGG [Fam2.1 aminoacylation ribozyme variant] | 2.98 | 2.81 | 3.05 | 2.35 | –
28 | AUUCACCGAGGUCAUCGGUUG [Fam2.2 aminoacylation ribozyme variant] | 29 | 3.52 | 2.6 | 4.89 | –
29 | AUUCACCUAAUUCAUCGGGUG [Fam2.2 aminoacylation ribozyme variant] | 15.5 | 2.68 | 3.32 | 3.05 | –
30 | AUUCACCUAGAUAAUCGGGUG [Fam2.2 aminoacylation ribozyme variant] | 12.9 | 2.25 | – | 2.79 | –
31 | AUUCACCUAGGUAACCGGGUG [Fam2.2 aminoacylation ribozyme variant] | 11 | 2.57 | 2.56 | 2.85 | –
32 | AUUCACCUAGGUCCUCGGGAG [Fam2.2 aminoacylation ribozyme variant] | 2.83 | – | – | 2.11 | –
33 | AUUCACCUCGGUCAUCGAGUG [Fam2.2 aminoacylation ribozyme variant] | 13.1 | 2.33 | 2.51 | 2.88 | –
34 | AUUCACUUAGCUCAUCGGGUG [Fam2.2 aminoacylation ribozyme variant] | 4.96 | – | – | 2.03 | –
35 | AUUCUCCUAGGUCAUAGGGUG [Fam2.2 aminoacylation ribozyme variant] | 8.67 | 2.33 | – | 2.94 | –
36 | CCACAACUCAAGCAAUCGGUC [Fam1B.1 aminoacylation ribozyme variant] | 2.62 | – | – | – | 2.23
37 | CCACACGUCAAGCAAUCCGUC [Fam1B.1 aminoacylation ribozyme variant] | – | – | 2.45 | – | 2.22
38 | CCACACUCCAAGCAUUCGGUC [Fam1B.1 aminoacylation ribozyme variant] | – | – | – | – | 2.83

Row | Sequence | self-aminoacylation (biotinyl-Phe-oxazolone) | self-aminoacylation (biotinyl-Met-oxazolone) | self-aminoacylation (biotinyl-Trp-oxazolone) | self-aminoacylation (biotinyl-Leu-oxazolone) | self-aminoacylation (biotinyl-Val-oxazolone)
39 | CCACACUUCAAGCAAUGGGCC [Fam1B.1 aminoacylation ribozyme variant] | – | – | – | – | 2.81
40 | CCACACUUCAAGCAGUCGCUC [Fam1B.1 aminoacylation ribozyme variant] | 4.31 | – | – | 2.06 | –
41 | CCACUCUUCAAGCAAUCGGGC [Fam1B.1 aminoacylation ribozyme variant] | – | – | – | 2.21 | –
42 | CCAGGCUUCAAGCAAUCGGUC [Fam1B.1 aminoacylation ribozyme variant] | 83.5 | – | 40.8 | 2.42 | –
43 | CCGCACUUCAAACAAUCGGUC [Fam1B.1 aminoacylation ribozyme variant] | 157 | – | 74.3 | 3.41 | –
44 | CCUCUUCAAACAAUCGGUCUG [Fam1A.1 aminoacylation ribozyme variant] | 85.8 | – | 38.6 | 2.36 | –
45 | CGACUUCAAACAAUCGGUGUG [Fam1A.1 aminoacylation ribozyme variant] | 10.9 | – | 9.56 | 2.54 | –
46 | CUACCUCAAACAAUCGGCCUG [Fam1A.1 aminoacylation ribozyme variant] | 3.13 | – | 5.05 | 2.11 | –
47 | CUACCUCAAACAUUCGGUCUG [Fam1A.1 aminoacylation ribozyme variant] | 10.3 | – | 3.08 | 2.13 | –
48 | CUACUUCAAACAAUCGAUGUG [Fam1A.1 aminoacylation ribozyme variant] | 3.31 | 2.24 | – | – | –
49 | CUACUUCAAAGAAUCGGCCUG [Fam1A.1 aminoacylation ribozyme variant] | 6.89 | – | 8.54 | 2 | –
50 | CUGCUUCAAACAAUCGGUCUC [Fam1A.1 aminoacylation ribozyme variant] | 107 | – | 46 | 2.47 | –
51 | CUUACCCUGCUCAUCGAGUGA [Fam2.1 aminoacylation ribozyme variant] | 2.86 | 2.57 | 2.2 | 2.19 | –
52 | CUUACCCUGGUCAUCGAGGGA [Fam2.1 aminoacylation ribozyme variant] | – | – | – | – | 2.04
53 | CUUACCCUGGUCAUCGAGUGC [Fam2.1 aminoacylation ribozyme variant] | 4.77 | 2.91 | 3.03 | 3.18 | –
54 | GCACUCUUCAAGCAAUCGGUC [Fam1B.1 aminoacylation ribozyme variant] | 6.58 | – | 5.27 | 2.07 | –
55 | UCAGACUUCAAGCAAUCGGUC [Fam1B.1 aminoacylation ribozyme variant] | 63.8 | – | 37.2 | 2.62 | –
56 | UUACUUCAAACAAUCGGUCGG [Fam1A.1 aminoacylation ribozyme variant] | 18.1 | – | 14.5 | 2.1 | –
